Target: Prototype foamy virus (PFV) Env glycoprotein, wild type, fully processed (gp18^LP, gp80^SU, gp48^TM), trimeric spike in the viral membrane (Prototype foamy virus (PFV)) (UniProt P14351)
Test: cryo-electron tomography with subtomogram averaging; Env in situ in the membrane of purified virus particles (wt fixed with 4% paraformaldehyde, iNAB, iFuse), plunge-frozen; single spike, 3-fold symmetry seen in the asymmetric average and then enforced; 3.2, 2.9 and 2.8 nm at FSC = 0.5; step: Env protomers in the trimeric spike

Work on “Prototype foamy virus (PFV) Env glycoprotein, wild type, fully processed (gp18^LP, gp80^SU, gp48^TM), trimeric spike in the viral membrane (from UniProt P14351 1-126; P14351 1-126; P14351 1-126) (complex)” yielded a stoichiometry N of 3.
